Changes are numbered by the printed parent chain. Names and notes keep the numbering of the source. One block for each binder: values may come before it.
Experiments:
[1] = molecular target: T1, wild type full length chicken N-cadherin expressed on stably transfected K562 cells (chicken, UniProt P10288 165-912); experiment: adhesion of K562 transfectants to coated N-cadherin Fc
T1 construct: whole, on cells; also called K562 transfectants (Wt); wild type cells
T1 sequence (looked up): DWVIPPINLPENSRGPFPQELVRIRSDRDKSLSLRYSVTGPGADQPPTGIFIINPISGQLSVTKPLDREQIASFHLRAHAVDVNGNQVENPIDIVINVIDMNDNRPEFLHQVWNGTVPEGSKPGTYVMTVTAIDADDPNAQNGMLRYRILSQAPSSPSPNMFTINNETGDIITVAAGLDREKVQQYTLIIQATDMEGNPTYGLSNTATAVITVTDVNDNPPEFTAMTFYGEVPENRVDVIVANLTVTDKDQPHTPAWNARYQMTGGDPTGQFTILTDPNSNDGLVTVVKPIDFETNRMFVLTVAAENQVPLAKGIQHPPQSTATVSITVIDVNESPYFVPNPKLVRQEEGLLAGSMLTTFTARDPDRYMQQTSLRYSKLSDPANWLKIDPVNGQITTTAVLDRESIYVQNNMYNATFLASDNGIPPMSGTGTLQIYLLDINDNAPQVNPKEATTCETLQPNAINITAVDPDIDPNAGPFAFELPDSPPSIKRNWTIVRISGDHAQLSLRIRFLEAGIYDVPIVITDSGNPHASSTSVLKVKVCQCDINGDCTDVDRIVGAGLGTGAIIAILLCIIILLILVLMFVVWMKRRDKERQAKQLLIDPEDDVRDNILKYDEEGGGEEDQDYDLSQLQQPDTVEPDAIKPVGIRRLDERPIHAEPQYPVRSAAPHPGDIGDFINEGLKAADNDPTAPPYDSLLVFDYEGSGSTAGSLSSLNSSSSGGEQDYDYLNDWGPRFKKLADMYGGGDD
Outline: (§1)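 K562 (or L) cells transfected with wild-type or mutant N-cadherin settled 45 min at 37 °C onto N-cadherin Fc coated at 1 µg/ml. After non-adherent cells were washed off, bound cells were quantified by acid phosphatase activity. Values are % cells adhering ± SEM, quadruplicate.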

[2] = molecular target: T2, full length chicken N-cadherin with the mutation E89A expressed on K562 cells (chicken, UniProt P10288 165-912, E89A); experiment: as above
T2 construct: whole, on cells; also called cells expressing the E89A mutation; K562 E89A
T2 sequence (looked up): T1 sequence (looked up) with E89A
Outline: as §1

[3] = molecular target: T3, human N-cadherin naturally expressed on DX3 melanoma cells (human, UniProt P19022 160-906); experiment: adhesion of DX3 cells to coated N-cadherin-Fc
T3 construct: also called DX3 Cells; N-cadherin+ve DX3 melanoma cells
T3 sequence: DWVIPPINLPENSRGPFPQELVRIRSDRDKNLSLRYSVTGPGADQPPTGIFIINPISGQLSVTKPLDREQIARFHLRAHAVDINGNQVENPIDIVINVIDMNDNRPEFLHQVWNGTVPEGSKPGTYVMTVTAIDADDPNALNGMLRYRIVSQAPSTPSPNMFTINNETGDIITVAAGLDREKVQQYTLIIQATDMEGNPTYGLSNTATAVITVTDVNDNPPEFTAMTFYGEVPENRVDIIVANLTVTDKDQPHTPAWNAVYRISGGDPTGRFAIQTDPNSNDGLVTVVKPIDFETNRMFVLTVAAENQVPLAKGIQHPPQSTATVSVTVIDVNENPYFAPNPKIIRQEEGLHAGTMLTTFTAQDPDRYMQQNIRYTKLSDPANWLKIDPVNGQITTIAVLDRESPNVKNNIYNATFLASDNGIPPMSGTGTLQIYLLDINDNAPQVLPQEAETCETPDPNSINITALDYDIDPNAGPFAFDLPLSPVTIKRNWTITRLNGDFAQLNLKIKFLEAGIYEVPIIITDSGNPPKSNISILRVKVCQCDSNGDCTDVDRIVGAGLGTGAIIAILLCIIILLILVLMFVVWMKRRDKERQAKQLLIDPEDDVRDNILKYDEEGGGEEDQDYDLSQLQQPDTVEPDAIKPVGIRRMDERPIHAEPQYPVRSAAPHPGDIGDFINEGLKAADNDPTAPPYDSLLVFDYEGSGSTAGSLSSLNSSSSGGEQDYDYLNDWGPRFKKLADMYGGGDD
Method: Monomeric or dimeric N-cadherin-Fc fusion protein in Cos cell supernatants was added as described for the ELISA assay. DX3 Cells, a human melanoma cell line which expresses N-cadherin, were dissociated with Cell Dissociation Solution (Sigma, code C5789), resuspended in HBSS with 2% FCS and assessed for adhesion to wild type or mutant N-cadherin-Fc as previously described (Corps et al., 2001). Microscopic examination established that the cells were present as a single cell suspension as they settled onto the plate. For assays conducted in reducing conditions, 10 mM DTT was present during the adhesion and washing steps. Determinations were conducted in triplicate and results are presented as mean +/−sem.

B1: chicken N-cadherin-Fc fusion protein with the mutation D134A, dimeric (Fc fusion, UniProt P10288 165-728, looked up)
chain: DWVIPPINLPENSRGPFPQELVRIRSDRDKSLSLRYSVTGPGADQPPTGIFIINPISGQLSVTKPLDREQIASFHLRAHAVDVNGNQVENPIDIVINVIDMNDNRPEFLHQVWNGTVPEGSKPGTYVMTVTAIAADDPNAQNGMLRYRILSQAPSSPSPNMFTINNETGDIITVAAGLDREKVQQYTLIIQATDMEGNPTYGLSNTATAVITVTDVNDNPPEFTAMTFYGEVPENRVDVIVANLTVTDKDQPHTPAWNARYQMTGGDPTGQFTILTDPNSNDGLVTVVKPIDFETNRMFVLTVAAENQVPLAKGIQHPPQSTATVSITVIDVNESPYFVPNPKLVRQEEGLLAGSMLTTFTARDPDRYMQQTSLRYSKLSDPANWLKIDPVNGQITTTAVLDRESIYVQNNMYNATFLASDNGIPPMSGTGTLQIYLLDINDNAPQVNPKEATTCETLQPNAINITAVDPDIDPNAGPFAFELPDSPPSIKRNWTIVRISGDHAQLSLRIRFLEAGIYDVPIVITDSGNPHASSTSVLKVKVCQCDINGDCTDVDRIVGAGLGT
notes: extracellular domain; also called D134A mutant; N-cadherin Fc mutant D134A; not shown: hinge region, CH2 and CH3 domains of human IgG1 heavy chain (vector pIgSig)
binding result [1]: no binding (tested: Fc fusion protein coated at 1 µg/ml)
binding result [2]: no binding (tested: Fc fusion protein coated at 1 µg/ml)

binding result [3]: binds
B2: wild type chicken N-cadherin-Fc fusion protein, dimeric (linked by disulphide bonds at the Ig hinge region) (Fc fusion, UniProt P10288 165-729, looked up)
chain: DWVIPPINLPENSRGPFPQELVRIRSDRDKSLSLRYSVTGPGADQPPTGIFIINPISGQLSVTKPLDREQIASFHLRAHAVDVNGNQVENPIDIVINVIDMNDNRPEFLHQVWNGTVPEGSKPGTYVMTVTAIDADDPNAQNGMLRYRILSQAPSSPSPNMFTINNETGDIITVAAGLDREKVQQYTLIIQATDMEGNPTYGLSNTATAVITVTDVNDNPPEFTAMTFYGEVPENRVDVIVANLTVTDKDQPHTPAWNARYQMTGGDPTGQFTILTDPNSNDGLVTVVKPIDFETNRMFVLTVAAENQVPLAKGIQHPPQSTATVSITVIDVNESPYFVPNPKLVRQEEGLLAGSMLTTFTARDPDRYMQQTSLRYSKLSDPANWLKIDPVNGQITTTAVLDRESIYVQNNMYNATFLASDNGIPPMSGTGTLQIYLLDINDNAPQVNPKEATTCETLQPNAINITAVDPDIDPNAGPFAFELPDSPPSIKRNWTIVRISGDHAQLSLRIRFLEAGIYDVPIVITDSGNPHASSTSVLKVKVCQCDINGDCTDVDRIVGAGLGTG
notes: extracellular domain; also called dimeric N-cadherin-Fc; wild type N-cadherin; not shown: hinge region, CH2 and CH3 domains of human IgG1 heavy chain (vector pIgSig)

From patent publication US20080274950A1 (BABRAHAM INSTITUTE, published 2008)
